Measurements published in patent US20230131598A1 (GlaxoSmithKline, published 2023).

Target: T1, human TIM-3 (T Cell Immunoglobulin and Mucin Domain-3) (human, UniProt Q8TDQ0 22-301)
T1 construct: The occupancy sentence names neither the receptor nor its form; also called HAVCR2
T1 sequence: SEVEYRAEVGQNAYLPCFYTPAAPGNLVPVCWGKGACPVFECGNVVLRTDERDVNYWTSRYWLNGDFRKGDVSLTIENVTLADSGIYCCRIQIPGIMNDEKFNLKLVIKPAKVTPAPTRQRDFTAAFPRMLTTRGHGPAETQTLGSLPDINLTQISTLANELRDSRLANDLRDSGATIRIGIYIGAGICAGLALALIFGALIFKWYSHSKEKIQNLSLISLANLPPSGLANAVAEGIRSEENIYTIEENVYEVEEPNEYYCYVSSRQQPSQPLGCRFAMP
Experiment: receptor occupancy in subjects of a corresponding Phase 1 study (method not described)

B1: cobolimab (antibody, human IgG4 S228P, kappa, V domains shown)
VH: EVQLLESGGGLVQPGGSLRLSCAAASGFTFSSYDMSWVRQAPGKGLDWVSTISGGGTYTYYQDSVKGRFTISRDNSKNTLYLQMNSLRAEDTAVYYCASMDYWGQGTTVTVSS
VL: DIQMTQSPSSLSASVGDRVTITCRASQSIRRYLNWYHQKPGKAPKLLIYGASTLQSGVPSRFSGSGSGTDFTLTISSLQPEDFAVYYCQQSHSAPLTFGGGTKVEIKR
notes: also called Anti-TIM3
B1: binds.
